Reference: publication PMC9482650, “Quantitative fragmentomics allow affinity mapping of interactomes” (Nature Communications, 2022)

T1: USH1C_3, Q9Y6N9
T1 sequence (Q9Y6N9 447-547, limits assumed, looked up): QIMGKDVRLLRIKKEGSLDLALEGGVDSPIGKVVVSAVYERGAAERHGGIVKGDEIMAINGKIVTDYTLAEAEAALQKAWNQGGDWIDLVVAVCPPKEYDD

T2: MLLT4, P55196
T2 sequence (P55196 1002-1103, limits assumed, looked up): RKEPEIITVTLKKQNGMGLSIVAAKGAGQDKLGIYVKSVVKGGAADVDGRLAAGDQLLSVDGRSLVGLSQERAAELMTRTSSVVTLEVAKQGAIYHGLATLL

T3: PDZD11, Q5EBL8
T3 sequence (Q5EBL8 42-139, limits assumed, looked up): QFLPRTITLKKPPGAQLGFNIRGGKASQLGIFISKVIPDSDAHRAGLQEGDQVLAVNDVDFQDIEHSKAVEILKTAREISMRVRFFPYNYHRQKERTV

T4: MPDZ_2, O75970
T4 sequence (O75970 252-347, limits assumed, looked up): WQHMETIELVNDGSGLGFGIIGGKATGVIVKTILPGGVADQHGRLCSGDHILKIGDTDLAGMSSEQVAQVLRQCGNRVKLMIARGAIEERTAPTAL

T5: PDZD8, Q8NEN9
T5 sequence (Q8NEN9 361-459, limits assumed, looked up): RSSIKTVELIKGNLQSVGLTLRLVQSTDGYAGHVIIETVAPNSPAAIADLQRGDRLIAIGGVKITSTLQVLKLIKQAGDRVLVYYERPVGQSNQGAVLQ

T6: DVL1, O14640
T6 sequence (O14640 246-333, limits assumed, looked up): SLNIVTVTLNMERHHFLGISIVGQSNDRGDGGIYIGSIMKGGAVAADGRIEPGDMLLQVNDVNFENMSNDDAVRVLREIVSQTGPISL

T7: SNTB2, Q13425
T7 sequence (Q13425 110-208, limits assumed, looked up): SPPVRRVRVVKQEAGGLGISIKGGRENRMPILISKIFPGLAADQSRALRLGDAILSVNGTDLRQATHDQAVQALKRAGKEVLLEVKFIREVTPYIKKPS

T8: GIPC1, O14908
T8 sequence (O14908 128-223, limits assumed, looked up): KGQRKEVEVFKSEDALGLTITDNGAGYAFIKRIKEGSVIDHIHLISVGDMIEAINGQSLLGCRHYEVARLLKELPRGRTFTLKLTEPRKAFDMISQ

T9: MPDZ_7, O75970
T9 sequence (O75970 1146-1253, limits assumed, looked up): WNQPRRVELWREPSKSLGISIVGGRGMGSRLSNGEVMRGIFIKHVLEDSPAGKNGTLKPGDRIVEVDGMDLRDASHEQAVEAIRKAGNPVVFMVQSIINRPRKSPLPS

T10: PREX2_2, Q70Z35
T10 sequence (Q70Z35 672-764, limits assumed, looked up): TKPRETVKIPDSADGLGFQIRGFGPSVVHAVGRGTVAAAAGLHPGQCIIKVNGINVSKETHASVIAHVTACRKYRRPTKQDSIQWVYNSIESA

T11: NHERF1_2, O14745
T11 sequence (O14745 149-244, limits assumed, looked up): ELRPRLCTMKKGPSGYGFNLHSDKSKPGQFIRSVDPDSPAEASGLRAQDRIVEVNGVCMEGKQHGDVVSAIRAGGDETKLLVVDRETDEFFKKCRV

T12: MPP5, Q8N3R9
T12 sequence (Q8N3R9 251-346, limits assumed, looked up): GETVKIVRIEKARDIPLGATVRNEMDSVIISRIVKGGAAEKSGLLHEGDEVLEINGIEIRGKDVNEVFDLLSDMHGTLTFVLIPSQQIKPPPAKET

T13: PARD6B, Q9BYG5
T13 sequence (Q9BYG5 152-260, limits assumed, looked up): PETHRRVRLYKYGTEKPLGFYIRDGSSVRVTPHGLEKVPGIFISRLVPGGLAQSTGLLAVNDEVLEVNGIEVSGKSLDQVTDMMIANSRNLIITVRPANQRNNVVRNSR

T14: CNKSR1, Q969H4
T14 sequence (Q969H4 191-295, limits assumed, looked up): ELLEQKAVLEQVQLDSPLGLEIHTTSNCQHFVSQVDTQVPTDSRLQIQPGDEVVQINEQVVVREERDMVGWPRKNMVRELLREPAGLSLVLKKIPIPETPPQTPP


The binders below were run against T1, USH1C_3, Q9Y6N9 (assay: holdup assay). Conditions: plain residues with an end cap or a label only (N-terminal biotin on a linker: ttds).
Parameters: key: below the threshold = too weak to quantify, mostly under pKd 3.1 to 4

Binder	pKd
SVWLRKETRV [CYSLTR2, Q9NS75]	below the threshold
PKTPPTDTSV [KIR3DL3, Q8N743]	below the threshold

These binders were tested against T2, MLLT4, P55196 (assay: holdup assay). Conditions: plain residues with an end cap or a label only (N-terminal biotin on a linker: ttds).
Parameters: key: below the threshold = too weak to quantify, mostly under pKd 3.1 to 4

Binder	pKd
SRPQRTQTQV [HPV67-E6, A4U7F2]	below the threshold
SVWLRKETRV [CYSLTR2, Q9NS75]	below the threshold
PKTPPTDTSV [KIR3DL3, Q8N743]	below the threshold

Each binder was assayed against T3, PDZD11, Q5EBL8 (assay: holdup assay). Conditions: plain residues with an end cap or a label only (N-terminal biotin on a linker: ttds).
Parameters: key: below the threshold = too weak to quantify, mostly under pKd 3.1 to 4

Binder	pKd
SRPQRTQTQV [HPV67-E6, A4U7F2]	below the threshold
SVWLRKETRV [CYSLTR2, Q9NS75]	below the threshold
PKTPPTDTSV [KIR3DL3, Q8N743]	4.3

Each binder was assayed against MAGI3_5, Q5TCQ9 (assay: holdup assay). Conditions: plain residues with an end cap or a label only (N-terminal biotin on a linker: ttds).
Parameters: key: below the threshold = too weak to quantify, mostly under pKd 3.1 to 4

MAGI3_5, Q5TCQ9, sequence (Q5TCQ9 847-941): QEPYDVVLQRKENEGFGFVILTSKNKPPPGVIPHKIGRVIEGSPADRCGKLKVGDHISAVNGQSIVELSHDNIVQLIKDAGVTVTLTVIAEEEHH

Binder	pKd
SRPQRTQTQV [HPV67-E6, A4U7F2]	below the threshold
SVWLRKETRV [CYSLTR2, Q9NS75]	below the threshold
PKTPPTDTSV [KIR3DL3, Q8N743]	below the threshold

What follows are binders tested against T4, MPDZ_2, O75970 (assay: holdup assay). Conditions: plain residues with an end cap or a label only (N-terminal biotin on a linker: ttds).
Parameters: key: below the threshold = too weak to quantify, mostly under pKd 3.1 to 4

Binder	pKd
SRPQRTQTQV [HPV67-E6, A4U7F2]	below the threshold
SVWLRKETRV [CYSLTR2, Q9NS75]	below the threshold
PKTPPTDTSV [KIR3DL3, Q8N743]	below the threshold

Each binder was assayed against T5, PDZD8, Q8NEN9 (assay: holdup assay). Conditions: plain residues with an end cap or a label only (N-terminal biotin on a linker: ttds).
Parameters: key: below the threshold = too weak to quantify, mostly under pKd 3.1 to 4

Binder	pKd
SRPQRTQTQV [HPV67-E6, A4U7F2]	below the threshold
SVWLRKETRV [CYSLTR2, Q9NS75]	below the threshold
PKTPPTDTSV [KIR3DL3, Q8N743]	4.36

Each binder was assayed against DVL2, O14641 (assay: holdup assay). Conditions: plain residues with an end cap or a label only (N-terminal biotin on a linker: ttds).
Parameters: key: below the threshold = too weak to quantify, mostly under pKd 3.1 to 4

DVL2, O14641, sequence (O14641 260-359): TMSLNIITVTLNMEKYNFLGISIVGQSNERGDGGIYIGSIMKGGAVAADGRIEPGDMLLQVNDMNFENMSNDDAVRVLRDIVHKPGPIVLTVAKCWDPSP

Binder	pKd
SRPQRTQTQV [HPV67-E6, A4U7F2]	below the threshold
SVWLRKETRV [CYSLTR2, Q9NS75]	below the threshold
PKTPPTDTSV [KIR3DL3, Q8N743]	below the threshold

Each binder was assayed against T6, DVL1, O14640 (assay: holdup assay). Conditions: plain residues with an end cap or a label only (N-terminal biotin on a linker: ttds).
Parameters: key: below the threshold = too weak to quantify, mostly under pKd 3.1 to 4

Binder	pKd
SRPQRTQTQV [HPV67-E6, A4U7F2]	below the threshold
SVWLRKETRV [CYSLTR2, Q9NS75]	4.32
PKTPPTDTSV [KIR3DL3, Q8N743]	below the threshold

What follows are binders tested against MAGI1_3, Q96QZ7 (assay: holdup assay). Conditions: plain residues with an end cap or a label only (N-terminal biotin on a linker: ttds).
Parameters: key: below the threshold = too weak to quantify, mostly under pKd 3.1 to 4

MAGI1_3, Q96QZ7, sequence (Q96QZ7 638-725): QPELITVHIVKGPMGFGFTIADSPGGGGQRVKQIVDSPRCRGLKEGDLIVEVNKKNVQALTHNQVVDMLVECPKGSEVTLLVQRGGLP

Binder	pKd
SRPQRTQTQV [HPV67-E6, A4U7F2]	4.12
SVWLRKETRV [CYSLTR2, Q9NS75]	5.09
PKTPPTDTSV [KIR3DL3, Q8N743]	below the threshold

The binders below were run against PDZD9, Q8IXQ8 (assay: holdup assay). Conditions: plain residues with an end cap or a label only (N-terminal biotin on a linker: ttds).
Parameters: key: below the threshold = too weak to quantify, mostly under pKd 3.1 to 4

PDZD9, Q8IXQ8, sequence (Q8IXQ8 23-120): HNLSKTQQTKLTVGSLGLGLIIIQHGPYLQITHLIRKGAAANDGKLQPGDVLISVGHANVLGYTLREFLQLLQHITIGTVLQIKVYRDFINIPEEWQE

Binder	pKd
SRPQRTQTQV [HPV67-E6, A4U7F2]	below the threshold
SVWLRKETRV [CYSLTR2, Q9NS75]	below the threshold
PKTPPTDTSV [KIR3DL3, Q8N743]	below the threshold

These binders were tested against T7, SNTB2, Q13425 (assay: holdup assay). Conditions: plain residues with an end cap or a label only (N-terminal biotin on a linker: ttds).
Parameters: key: below the threshold = too weak to quantify, mostly under pKd 3.1 to 4

Binder	pKd
SRPQRTQTQV [HPV67-E6, A4U7F2]	below the threshold
SVWLRKETRV [CYSLTR2, Q9NS75]	5.14
PKTPPTDTSV [KIR3DL3, Q8N743]	below the threshold

These binders were tested against T8, GIPC1, O14908 (assay: holdup assay). Conditions: plain residues with an end cap or a label only (N-terminal biotin on a linker: ttds).
Parameters: key: below the threshold = too weak to quantify, mostly under pKd 3.1 to 4

Binder	pKd
SRPQRTQTQV [HPV67-E6, A4U7F2]	below the threshold
SVWLRKETRV [CYSLTR2, Q9NS75]	below the threshold
PKTPPTDTSV [KIR3DL3, Q8N743]	below the threshold

Each binder was assayed against RIMS2, Q9UQ26 (assay: holdup assay). Conditions: plain residues with an end cap or a label only (N-terminal biotin on a linker: ttds).
Parameters: key: below the threshold = too weak to quantify, mostly under pKd 3.1 to 4

RIMS2, Q9UQ26, sequence (Q9UQ26 637-758): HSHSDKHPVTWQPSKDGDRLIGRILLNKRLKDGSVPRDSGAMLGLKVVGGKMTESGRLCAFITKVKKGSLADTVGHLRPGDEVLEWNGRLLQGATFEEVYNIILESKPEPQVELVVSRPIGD

Binder	pKd
SRPQRTQTQV [HPV67-E6, A4U7F2]	below the threshold
SVWLRKETRV [CYSLTR2, Q9NS75]	below the threshold
PKTPPTDTSV [KIR3DL3, Q8N743]	below the threshold

Each binder was assayed against SDCBP_1, O00560 (assay: holdup assay). Conditions: plain residues with an end cap or a label only (N-terminal biotin on a linker: ttds).
Parameters: key: below the threshold = too weak to quantify, mostly under pKd 3.1 to 4

SDCBP_1, O00560, sequence (O00560 111-198): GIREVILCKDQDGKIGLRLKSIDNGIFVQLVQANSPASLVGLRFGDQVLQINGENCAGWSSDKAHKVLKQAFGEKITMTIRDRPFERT

Binder	pKd
SRPQRTQTQV [HPV67-E6, A4U7F2]	below the threshold
SVWLRKETRV [CYSLTR2, Q9NS75]	below the threshold
PKTPPTDTSV [KIR3DL3, Q8N743]	below the threshold

Each binder was assayed against AHNAK2, Q8IVF2 (assay: holdup assay). Conditions: plain residues with an end cap or a label only (N-terminal biotin on a linker: ttds).
Parameters: key: below the threshold = too weak to quantify, mostly under pKd 3.1 to 4

AHNAK2, Q8IVF2, sequence (Q8IVF2 108-193): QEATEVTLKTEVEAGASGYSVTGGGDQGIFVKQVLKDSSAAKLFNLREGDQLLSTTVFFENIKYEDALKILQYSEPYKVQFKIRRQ

Binder	pKd
SRPQRTQTQV [HPV67-E6, A4U7F2]	below the threshold
SVWLRKETRV [CYSLTR2, Q9NS75]	below the threshold
PKTPPTDTSV [KIR3DL3, Q8N743]	below the threshold

The binders below were run against DLG2_1, Q15700 (assay: holdup assay). Conditions: plain residues with an end cap or a label only (N-terminal biotin on a linker: ttds).
Parameters: key: below the threshold = too weak to quantify, mostly under pKd 3.1 to 4

Binder	pKd
SRPQRTQTQV [HPV67-E6, A4U7F2]	4.25
SVWLRKETRV [CYSLTR2, Q9NS75]	5.26
PKTPPTDTSV [KIR3DL3, Q8N743]	below the threshold

The binders below were run against T9, MPDZ_7, O75970 (assay: holdup assay). Conditions: plain residues with an end cap or a label only (N-terminal biotin on a linker: ttds).
Parameters: key: below the threshold = too weak to quantify, mostly under pKd 3.1 to 4

Binder	pKd
SRPQRTQTQV [HPV67-E6, A4U7F2]	below the threshold
SVWLRKETRV [CYSLTR2, Q9NS75]	4.33
PKTPPTDTSV [KIR3DL3, Q8N743]	below the threshold

Each binder was assayed against T10, PREX2_2, Q70Z35 (assay: holdup assay). Conditions: plain residues with an end cap or a label only (N-terminal biotin on a linker: ttds).
Parameters: key: below the threshold = too weak to quantify, mostly under pKd 3.1 to 4

Binder	pKd
SRPQRTQTQV [HPV67-E6, A4U7F2]	below the threshold
SVWLRKETRV [CYSLTR2, Q9NS75]	below the threshold
PKTPPTDTSV [KIR3DL3, Q8N743]	below the threshold

What follows are binders tested against T11, NHERF1_2, O14745 (assay: holdup assay). Conditions: plain residues with an end cap or a label only (N-terminal biotin on a linker: ttds).
Parameters: key: below the threshold = too weak to quantify, mostly under pKd 3.1 to 4

Binder	pKd
SRPQRTQTQV [HPV67-E6, A4U7F2]	below the threshold
SVWLRKETRV [CYSLTR2, Q9NS75]	below the threshold
PKTPPTDTSV [KIR3DL3, Q8N743]	below the threshold

These binders were tested against T12, MPP5, Q8N3R9 (assay: holdup assay). Conditions: plain residues with an end cap or a label only (N-terminal biotin on a linker: ttds).
Parameters: key: below the threshold = too weak to quantify, mostly under pKd 3.1 to 4

Binder	pKd
SRPQRTQTQV [HPV67-E6, A4U7F2]	below the threshold
SVWLRKETRV [CYSLTR2, Q9NS75]	below the threshold
PKTPPTDTSV [KIR3DL3, Q8N743]	below the threshold

Each binder was assayed against T13, PARD6B, Q9BYG5 (assay: holdup assay). Conditions: plain residues with an end cap or a label only (N-terminal biotin on a linker: ttds).
Parameters: key: below the threshold = too weak to quantify, mostly under pKd 3.1 to 4

Binder	pKd
SRPQRTQTQV [HPV67-E6, A4U7F2]	below the threshold
SVWLRKETRV [CYSLTR2, Q9NS75]	below the threshold
PKTPPTDTSV [KIR3DL3, Q8N743]	below the threshold

These binders were tested against T14, CNKSR1, Q969H4 (assay: holdup assay). Conditions: plain residues with an end cap or a label only (N-terminal biotin on a linker: ttds).
Parameters: key: below the threshold = too weak to quantify, mostly under pKd 3.1 to 4

Binder	pKd
SRPQRTQTQV [HPV67-E6, A4U7F2]	below the threshold
SVWLRKETRV [CYSLTR2, Q9NS75]	below the threshold
PKTPPTDTSV [KIR3DL3, Q8N743]	below the threshold
